Data as given in IntAct's records for PubMed 17006541.

B1: DNA topoisomerase 2-binding protein 1 (Homo sapiens), Q92547 (parent)
chain: MSRNDKEPFFVKFLKSSDNSKCFFKALESIKEFQSEEYLQIITEEEALKIKENDRSLYICDPFSGVVFDHLKKLGCRIVGPQVVIFCMHHQRCVPRAEHPVYNMVMSDVTISCTSLEKEKREEVHKYVQMMGGRVYRDLNVSVTHLIAGEVGSKKYLVAANLKKPILLPSWIKTLWEKSQEKKITRYTDINMEDFKCPIFLGCIICVTGLCGLDRKEVQQLTVKHGGQYMGQLKMNECTHLIVQEPKGQKYECAKRWNVHCVTTQWFFDSIEKGFCQDESIYKTEPRPEAKTMPNSSTPTSQINTIDSRTLSDVSNISNINASCVSESICNSLNSKLEPTLENLENLDVSAFQAPEDLLDGCRIYLCGFSGRKLDKLRRLINSGGGVRFNQLNEDVTHVIVGDYDDELKQFWNKSAHRPHVVGAKWLLECFSKGYMLSEEPYIHANYQPVEIPVSHKPESKAALLKKKNSSFSKKDFAPSEKHEQADEDLLSQYENGSSTVVEAKTSEARPFNDSTHAEPLNDSTHISLQEENQSSVSHCVPDVSTITEEGLFSQKSFLVLGFSNENESNIANIIKENAGKIMSLLSRTVADYAVVPLLGCEVEATVGEVVTNTWLVTCIDYQTLFDPKSNPLFTPVPVMTGMTPLEDCVISFSQCAGAEKESLTFLANLLGASVQEYFVRKSNAKKGMFASTHLILKERGGSKYEAAKKWNLPAVTIAWLLETARTGKRADESHFLIENSTKEERSLETEITNGINLNSDTAEHPGTRLQTHRKTVVTPLDMNRFQSKAFRAVVSQHARQVAASPAVGQPLQKEPSLHLDTPSKFLSKDKLFKPSFDVKDALAALETPGRPSQQKRKPSTPLSEVIVKNLQLALANSSRNAVALSASPQLKEAQSEKEEAPKPLHKVVVCVSKKLSKKQSELNGIAASLGADYRWSFDETVTHFIYQGRPNDTNREYKSVKERGVHIVSEHWLLDCAQECKHLPESLYPHTYNPKMSLDISAVQDGRLCNSRLLSAVSSTKDDEPDPLILEENDVDNMATNNKESAPSNGSGKNDSKGVLTQTLEMRENFQKQLQEIMSATSIVKPQGQRTSLSRSGCNSASSTPDSTRSARSGRSRVLEALRQSRQTVPDVNTEPSQNEQIIWDDPTAREERARLASNLQWPSCPTQYSELQVDIQNLEDSPFQKPLHDSEIAKQAVCDPGNIRVTEAPKHPISEELETPIKDSHLIPTPQAPSIAFPLANPPVAPHPREKIITIEETHEELKKQYIFQLSSLNPQERIDYCHLIEKLGGLVIEKQCFDPTCTHIVVGHPLRNEKYLASVAAGKWVLHRSYLEACRTAGHFVQEEDYEWGSSSILDVLTGINVQQRRLALAAMRWRKKIQQRQESGIVEGAFSGWKVILHVDQSREAGFKRLLQSGGAKVLPGHSVPLFKEATHLFSDLNKLKPDDSGVNIAEAAAQNVYCLRTEYIADYLMQESPPHVENYCLPEAISFIQNNKELGTGLSQKRKAPTEKNKIKRPRVH

How the values were obtained:
[1] = variants of: B1; details: with e2f1_human E2F1, Q01094
e2f1_human E2F1, Q01094, sequence (Q01094 whole entry): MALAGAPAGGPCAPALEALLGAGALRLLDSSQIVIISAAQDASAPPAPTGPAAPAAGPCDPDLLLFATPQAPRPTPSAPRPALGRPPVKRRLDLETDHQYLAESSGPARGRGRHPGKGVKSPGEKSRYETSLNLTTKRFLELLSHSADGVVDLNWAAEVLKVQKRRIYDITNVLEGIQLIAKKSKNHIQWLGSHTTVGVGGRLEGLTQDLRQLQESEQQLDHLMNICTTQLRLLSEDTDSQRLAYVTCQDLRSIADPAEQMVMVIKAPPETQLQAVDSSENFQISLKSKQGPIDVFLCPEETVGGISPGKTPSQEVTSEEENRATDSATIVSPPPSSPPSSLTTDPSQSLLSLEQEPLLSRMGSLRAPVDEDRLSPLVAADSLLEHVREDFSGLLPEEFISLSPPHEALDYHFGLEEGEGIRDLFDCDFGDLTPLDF

[2] = variants of: B1; details: with akt1_human AKT1, P31749
akt1_human AKT1, P31749, sequence (P31749 whole entry): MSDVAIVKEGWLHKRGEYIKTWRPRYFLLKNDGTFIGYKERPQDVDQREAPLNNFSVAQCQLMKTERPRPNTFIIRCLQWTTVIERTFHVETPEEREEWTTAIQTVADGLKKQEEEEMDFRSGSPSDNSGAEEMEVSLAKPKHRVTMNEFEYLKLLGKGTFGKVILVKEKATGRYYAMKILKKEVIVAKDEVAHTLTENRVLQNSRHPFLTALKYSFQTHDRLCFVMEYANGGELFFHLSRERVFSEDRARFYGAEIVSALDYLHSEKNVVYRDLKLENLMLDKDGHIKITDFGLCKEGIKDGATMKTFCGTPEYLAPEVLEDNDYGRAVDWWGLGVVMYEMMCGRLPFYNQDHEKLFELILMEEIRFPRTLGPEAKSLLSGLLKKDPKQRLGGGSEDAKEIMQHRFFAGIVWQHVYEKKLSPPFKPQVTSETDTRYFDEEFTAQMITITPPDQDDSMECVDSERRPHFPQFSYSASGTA

[3] = variants of: B1; details: with pias2_human PIAS2, O75928
pias2_human PIAS2, O75928, sequence (O75928 whole entry): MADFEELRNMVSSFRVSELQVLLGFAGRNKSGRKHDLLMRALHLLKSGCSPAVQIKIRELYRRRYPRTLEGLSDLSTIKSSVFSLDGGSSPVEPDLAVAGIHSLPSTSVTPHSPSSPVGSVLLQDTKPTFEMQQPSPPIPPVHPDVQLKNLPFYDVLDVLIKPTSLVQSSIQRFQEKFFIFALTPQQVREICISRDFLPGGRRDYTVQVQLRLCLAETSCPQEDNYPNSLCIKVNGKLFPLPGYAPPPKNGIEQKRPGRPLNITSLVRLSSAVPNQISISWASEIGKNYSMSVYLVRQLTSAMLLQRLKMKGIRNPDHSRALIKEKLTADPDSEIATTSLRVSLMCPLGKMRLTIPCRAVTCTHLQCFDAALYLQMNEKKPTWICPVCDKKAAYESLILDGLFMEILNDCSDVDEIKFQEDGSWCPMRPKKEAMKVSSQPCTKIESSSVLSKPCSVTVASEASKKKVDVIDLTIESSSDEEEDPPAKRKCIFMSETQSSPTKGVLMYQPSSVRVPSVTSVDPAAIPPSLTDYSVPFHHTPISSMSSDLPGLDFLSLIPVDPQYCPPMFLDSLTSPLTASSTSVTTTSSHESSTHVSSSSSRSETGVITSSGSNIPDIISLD

[4] = variants of: B1; details: with ve2_hpv16 E2, P03120
ve2_hpv16 E2, P03120, sequence (P03120 whole entry): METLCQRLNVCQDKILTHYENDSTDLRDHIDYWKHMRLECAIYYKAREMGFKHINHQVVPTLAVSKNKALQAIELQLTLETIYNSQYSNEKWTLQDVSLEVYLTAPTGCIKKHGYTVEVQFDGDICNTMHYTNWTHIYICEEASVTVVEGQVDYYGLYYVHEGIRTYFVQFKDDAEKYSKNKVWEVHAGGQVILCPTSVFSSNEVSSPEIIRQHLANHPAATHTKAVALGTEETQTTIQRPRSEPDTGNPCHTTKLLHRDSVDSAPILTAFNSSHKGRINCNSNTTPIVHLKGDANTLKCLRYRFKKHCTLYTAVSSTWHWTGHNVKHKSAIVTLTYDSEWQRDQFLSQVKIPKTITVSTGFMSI

Variant	effect of a mutation on the interaction [1]	effect of a mutation on the interaction [2]	effect of a mutation on the interaction [3]	effect of a mutation on the interaction [4]
S1159D	decreasing interaction			
S1159A	disrupting interaction	disrupting interaction	decreasing interaction	decreasing interaction
